The target of data set [1] is T1, CCA1 (Arabidopsis thaliana, UniProt P92973 P92973:1-608). The experiment in a line: EMSA; 10 fmol rCCA1 and 10 fmol probe; cold competitor 5-50x; text prints PORE for PORB. As to conditions: tags: full-length cDNA in pET300/NT-DEST, E. coli Rosetta-gami B; label: 32P. From the text:
(§1) The cDNA was cloned into pDONR221 and validated by sequencing. The resulting insert was transferred by recombination into pET300/NT-DEST expression vector (Invitrogen Corp., Carlsbad, Calif.) and expressed in Escherichia coli Rosetta-gami B competent cells (Novagen, Madison, Wis.). Recombinant CCA1 protein was purified and subjected to EMSA in 6% native polyacrylamide gels using rCCA1 (10 fmoles) and ³²P-labeled double-stranded oligonucleotides (10 fmoles, Table 5). The cold probe (Cp) concentrations were 0 (-), 50 (5×), 100 (10×), 200 (20×), and 500 (50×) fmoles, respectively, according to a published protocol available at http://www.natureprotocols.com/2009/01/08/the_electrophoretic_mobility_s_{—}1.php.
(Mobility shift assays separate free from complexed probe on a gel.)

For data set [2], the target named is T1, CCA1. The experiment in a line: EMSA; 10 fmol rCCA1 and 10 fmol probe; cold competitor 5-50x. As to conditions: tags: full-length cDNA in pET300/NT-DEST, E. coli Rosetta-gami B; label: 32P.
Source text: as §1

T1 sequence (P92973 whole entry, one chain of several): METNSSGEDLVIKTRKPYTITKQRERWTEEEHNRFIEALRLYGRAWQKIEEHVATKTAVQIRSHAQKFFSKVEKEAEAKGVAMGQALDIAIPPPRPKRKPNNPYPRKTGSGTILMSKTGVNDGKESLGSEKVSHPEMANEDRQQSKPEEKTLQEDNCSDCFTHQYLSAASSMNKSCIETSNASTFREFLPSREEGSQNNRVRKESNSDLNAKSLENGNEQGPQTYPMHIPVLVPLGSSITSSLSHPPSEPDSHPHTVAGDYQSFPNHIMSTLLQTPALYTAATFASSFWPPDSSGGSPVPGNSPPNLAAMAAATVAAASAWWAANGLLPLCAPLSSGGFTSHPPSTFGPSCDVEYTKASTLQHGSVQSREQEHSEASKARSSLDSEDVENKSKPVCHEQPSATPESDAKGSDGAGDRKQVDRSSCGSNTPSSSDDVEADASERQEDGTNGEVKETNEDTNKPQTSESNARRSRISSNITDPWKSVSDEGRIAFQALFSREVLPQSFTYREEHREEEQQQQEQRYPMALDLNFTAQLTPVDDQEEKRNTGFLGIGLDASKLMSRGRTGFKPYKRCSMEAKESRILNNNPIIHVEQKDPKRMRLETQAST

B1: PORB promoter EE oligo (dsDNA)
DNA 1: ATTAAAATAAAATATCTAAGGAGAA
DNA 2: TTCTCCTTAGATATTTTATTTTAAT
On to B1, for which the binding result with CCA1 [1] is given as “binds”.

B2: PORA promoter EE oligo (dsDNA)
DNA 1: TATACATTAAAATATCTACTGACAG
DNA 2: CTGTCAGTAGATATTTTAATGTATA
Take B2: in the data set with CCA1 [2], the binding result is recorded as “binds”.

B3: DPE1 promoter EE oligo (dsDNA)
DNA 1: AGAGCAACAAAATATCTCGACTGTT
DNA 2: AACAGTCGAGATATTTTGTTGCTCT
B3: the binding result with CCA1 [2] is “binds”.

B4: TOC1 promoter EE oligo (dsDNA)
DNA 1: ACACAAAAAAAATATCTAATCACAG
DNA 2: CTGTGATTAGATATTTTTTTTGTGT
For B4, in the data set with CCA1 [2], the binding result was “binds”.

B5: GWD3 promoter EE oligo (dsDNA)
DNA 1: CACAAACAAAAAAATCTCTTATCAC
DNA 2: GTGATAAGAGATTTTTTTGTTTGTG
As for B5, in the data set with CCA1 [2], the binding result is “binds”.
